No end group written: not given here. *: point of attachment. RhodamineB = CCN(CC)c1ccc2c(-c3ccccc3C(=O)*)c3ccc(=[N+](CC)CC)cc-3oc2c1

Sequences and labels used below:
T1: NativeRPtag(large)_with_Tags_and_Cys (Thermoanaerobacter tengcongensis)
T1 construct: Unlabeled in anisotropy assays; coupled through the engineered N-terminal Cys to SulfoLink agarose or maleimide plates in column, pull-down and ELISA assays
T1 chain: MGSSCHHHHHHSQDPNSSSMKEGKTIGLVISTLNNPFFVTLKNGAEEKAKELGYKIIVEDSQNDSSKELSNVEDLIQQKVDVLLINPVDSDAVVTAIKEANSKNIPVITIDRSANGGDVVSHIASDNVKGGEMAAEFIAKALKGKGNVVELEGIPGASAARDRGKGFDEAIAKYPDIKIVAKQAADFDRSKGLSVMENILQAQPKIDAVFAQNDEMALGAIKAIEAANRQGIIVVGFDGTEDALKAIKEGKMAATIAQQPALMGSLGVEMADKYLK

B1: RPtag(small) v20a (peptide)
peptide: RhodamineB-GEKIPNFIPAELKLITKENAQ
notes: built here from the native peptide with the stated change
B2: RPtag(small) q21a (peptide)
peptide: RhodamineB-GEKIPNFIPAELKLITKENVA
notes: as for B1

The target of the first experiment is T1, NativeRPtag(large)_with_Tags_and_Cys. Nature of the experiment: fluorescence anisotropy.
In general, Kd refers to the free concentration of one partner at which half of the binding sites on the other are occupied at equilibrium, for simple one-to-one binding. In the case of RhodamineB-EKIPNFIPAELKLITKENVQ [RPtag(small) Nd1], the Kd worked out at 250 pM.
Molecule RhodamineB-KIPNFIPAELKLITKE [RPtag(small) Nd2, Cd3] displayed a Kd of 560 pM.
In the case of RhodamineB-KIANFIPAELKLITKE [RPtag(small) Nd2, Cd3, p5a], the Kd turned out to be 640 pM.
In the case of RhodamineB-KIPNFIPAELKLITKA [RPtag(small) Nd2, Cd3, e18a], binding was characterised by a dissociation constant (Kd) of 130 pM.
In the case of RhodamineB-KIANFIPAELKLITKA [RPtag(small) Nd2, Cd3, p5a, e18a], the equilibrium dissociation constant (Kd) stood at 560 pM.
Same read-out and setting: the figure for RhodamineB-GEKIPNFIPAELKLITKEN [RPtag(small) Cd2] is 1100 pM.
As to RhodamineB-GEKIPNFIPAELKLITK [RPtag(small) Cd4], the Kd amounted to 1000 pM.
Turning to RhodamineB-KIPNFIPAELKLITKANAA [RPtag(small) Nd2, e18a, v20a, q21a], the Kd was determined as 360 pM.
Same read-out and setting: the figure for RhodamineB-GEKIPNFIPAELKLITKE [RPtag(small) Cd3] is 1200 pM; for RhodamineB-GEKIPNFIPAELKLITKENV [RPtag(small) Cd1] it is 550 pM.
Still for that read-out and setting: with RhodamineB-GEKIPNFAPAELKLITKENVQ [RPtag(small) i8a] the figure was 1100 pM; with RhodamineB-GEKIPNFIPAELKLIAKENVQ [RPtag(small) t16a], 1200 pM; with RhodamineB-GEKIPAFIPAELKLITKENVQ [RPtag(small) n6a], 340 pM.
The molecule RhodamineB-GEKIPNFIPAEAKLITKENVQ [RPtag(small) l12a] yielded a Kd of 4700 pM.
B1 registered a Kd of 180 pM.
In turn, RhodamineB-GEKIPNFIPAELKLATKENVQ [RPtag(small) i15a] came in with a Kd of 4500 pM.
For the molecule B2, the Kd came to 100 pM.
Still for that read-out and setting: the figure for RhodamineB-GEKIPNFIAAELKLITKENVQ [RPtag(small) p9a] is 180 pM; for RhodamineB-KIPNFIPAELKLITK [RPtag(small) Nd2, Cd4] it is 410 pM; for RhodamineB-KIANFIPAELKLITK [RPtag(small) Nd2, Cd4, p5a] it is 820 pM.

Another experiment has the same target. Briefly: calculated from koff and Kd.
For orientation: kon means the second-order rate constant of association. RhodamineB-EKIPNFIPAELKLITKENVQ [RPtag(small) Nd1]: the kon is 567000 M⁻¹ s⁻¹.
On to RhodamineB-KIPNFIPAELKLITKE [RPtag(small) Nd2, Cd3], for which the kon is 1.37e+06 M⁻¹ s⁻¹.
Regarding RhodamineB-KIANFIPAELKLITKE [RPtag(small) Nd2, Cd3, p5a], the kon is 4.33e+06 M⁻¹ s⁻¹.
With RhodamineB-KIPNFIPAELKLITKA [RPtag(small) Nd2, Cd3, e18a], the kon is 6.67e+06 M⁻¹ s⁻¹.
For RhodamineB-KIANFIPAELKLITKA [RPtag(small) Nd2, Cd3, p5a, e18a], the kon was 5.5e+06 M⁻¹ s⁻¹.
As for RhodamineB-GEKIPNFIPAELKLITKEN [RPtag(small) Cd2], the kon is 1.63e+06 M⁻¹ s⁻¹.
With RhodamineB-GEKIPNFIPAELKLITK [RPtag(small) Cd4], the kon was 3.67e+06 M⁻¹ s⁻¹.
For RhodamineB-KIPNFIPAELKLITKANAA [RPtag(small) Nd2, e18a, v20a, q21a], the kon is 600000 M⁻¹ s⁻¹.
For the molecule RhodamineB-GEKIPNFIPAELKLITKE [RPtag(small) Cd3], the kon was 1.83e+06 M⁻¹ s⁻¹.
Still for that read-out and setting: with RhodamineB-GEKIPNFIPAELKLITKENV [RPtag(small) Cd1] the figure was 183000 M⁻¹ s⁻¹.
For RhodamineB-GEKIPNFAPAELKLITKENVQ [RPtag(small) i8a], the kon was 1.43e+06 M⁻¹ s⁻¹.
For the molecule RhodamineB-GEKIPNFIPAELKLIAKENVQ [RPtag(small) t16a], the kon is 1.25e+06 M⁻¹ s⁻¹.
For the molecule RhodamineB-GEKIPAFIPAELKLITKENVQ [RPtag(small) n6a], the kon was 75000 M⁻¹ s⁻¹.
In the case of RhodamineB-GEKIPNFIPAEAKLITKENVQ [RPtag(small) l12a], the kon was 717000 M⁻¹ s⁻¹.
B1: the kon is 1.13e+06 M⁻¹ s⁻¹.
For RhodamineB-GEKIPNFIPAELKLATKENVQ [RPtag(small) i15a], the kon was 4.17e+06 M⁻¹ s⁻¹.
The same measure, in the same setting: the figure for B2 is 583000 M⁻¹ s⁻¹; for RhodamineB-GEKIPNFIAAELKLITKENVQ [RPtag(small) p9a] it is 233000 M⁻¹ s⁻¹.
Same read-out and setting: the figure for RhodamineB-KIPNFIPAELKLITK [RPtag(small) Nd2, Cd4] is 3.33e+06 M⁻¹ s⁻¹; for RhodamineB-KIANFIPAELKLITK [RPtag(small) Nd2, Cd4, p5a] it is 3.67e+06 M⁻¹ s⁻¹.

The target is the same in the next experiment. Briefly: fluorescence anisotropy, competitor chase.
As usually defined, the koff is the first-order rate constant of dissociation. Higher therefore signals a short-lived complex. In the case of RhodamineB-EKIPNFIPAELKLITKENVQ [RPtag(small) Nd1], the koff turned out to be 0.000147 s⁻¹.
For the molecule RhodamineB-KIPNFIPAELKLITKE [RPtag(small) Nd2, Cd3], the koff was 0.000767 s⁻¹.
On the same count and under the same terms, with RhodamineB-KIANFIPAELKLITKE [RPtag(small) Nd2, Cd3, p5a] the figure was 0.00267 s⁻¹; with RhodamineB-KIPNFIPAELKLITKA [RPtag(small) Nd2, Cd3, e18a], 0.000883 s⁻¹.
Turning to RhodamineB-KIANFIPAELKLITKA [RPtag(small) Nd2, Cd3, p5a, e18a], the off-rate constant (koff) was 0.003 s⁻¹.
With RhodamineB-GEKIPNFIPAELKLITKEN [RPtag(small) Cd2], the koff was 0.00183 s⁻¹.
Regarding RhodamineB-GEKIPNFIPAELKLITK [RPtag(small) Cd4], the koff stood at 0.00367 s⁻¹.
For RhodamineB-KIPNFIPAELKLITKANAA [RPtag(small) Nd2, e18a, v20a, q21a], the koff worked out at 0.000383 s⁻¹.
In the case of RhodamineB-GEKIPNFIPAELKLITKE [RPtag(small) Cd3], the koff was 0.002 s⁻¹.
With RhodamineB-GEKIPNFIPAELKLITKENV [RPtag(small) Cd1], the koff was found to be 0.000102 s⁻¹.
For the molecule RhodamineB-GEKIPNFAPAELKLITKENVQ [RPtag(small) i8a], the dissociation rate constant (koff) was determined as 0.0015 s⁻¹.
The molecule RhodamineB-GEKIPNFIPAELKLIAKENVQ [RPtag(small) t16a] came in with a koff of 0.00148 s⁻¹.
RhodamineB-GEKIPAFIPAELKLITKENVQ [RPtag(small) n6a] gave a koff of 2.5e-05 s⁻¹.
RhodamineB-GEKIPNFIPAEAKLITKENVQ [RPtag(small) l12a] gave a koff of 0.00333 s⁻¹.
Molecule B1 had a koff of 0.0002 s⁻¹.
As for RhodamineB-GEKIPNFIPAELKLATKENVQ [RPtag(small) i15a], the koff turned out to be 0.0183 s⁻¹.
The molecule B2 yielded a koff of 5.67e-05 s⁻¹.
Molecule RhodamineB-GEKIPNFIAAELKLITKENVQ [RPtag(small) p9a] came in with a koff of 4e-05 s⁻¹.
Regarding RhodamineB-KIPNFIPAELKLITK [RPtag(small) Nd2, Cd4], the koff came to 0.00132 s⁻¹.
Still for that read-out and setting: with RhodamineB-KIANFIPAELKLITK [RPtag(small) Nd2, Cd4, p5a] the figure was 0.003 s⁻¹.

The next experiment has the same target. Nature of the experiment: fluorescence anisotropy, association kinetics. In general terms: In fluorescence polarisation assays a small probe gives low polarisation when free and higher when bound to something large.
As to RhodamineB-EKIPNFIPAELKLITKENVQ [RPtag(small) Nd1], the “Keq (S-S*)” value was 2.7, the “kf (S to S*)” value is 0.064 min⁻¹ and the “kr (S* to S)” value came out at 0.024 min⁻¹.
For the molecule RhodamineB-KIPNFIPAELKLITKE [RPtag(small) Nd2, Cd3], the “Keq (S-S*)” value was 0.6, the “kf (S to S*)” value was determined as 0.081 min⁻¹ and the “kr (S* to S)” value came out at 0.14 min⁻¹.
For RhodamineB-KIANFIPAELKLITKE [RPtag(small) Nd2, Cd3, p5a], the “Keq (S-S*)” value was 0.6, the “kf (S to S*)” value was 0.093 min⁻¹ and the “kr (S* to S)” value amounted to 0.16 min⁻¹.
For RhodamineB-KIPNFIPAELKLITKA [RPtag(small) Nd2, Cd3, e18a], in that order: 0.3, 0.084 min⁻¹ and 0.26 min⁻¹.
Turning to RhodamineB-KIANFIPAELKLITKA [RPtag(small) Nd2, Cd3, p5a, e18a], the “Keq (S-S*)” value was found to be 0.7, the “kf (S to S*)” value turned out to be 0.086 min⁻¹ and the “kr (S* to S)” value was 0.13 min⁻¹.
In the case of RhodamineB-GEKIPNFIPAELKLITKEN [RPtag(small) Cd2], the “Keq (S-S*)” value came out at 3.5, the “kf (S to S*)” value turned out to be 0.15 min⁻¹ and the “kr (S* to S)” value was determined as 0.043 min⁻¹.
In the case of RhodamineB-GEKIPNFIPAELKLITK [RPtag(small) Cd4], the “Keq (S-S*)” value came out at 1.3, the “kf (S to S*)” value worked out at 0.014 min⁻¹ and the “kr (S* to S)” value turned out to be 0.11 min⁻¹.
For RhodamineB-KIPNFIPAELKLITKANAA [RPtag(small) Nd2, e18a, v20a, q21a], in that order: 0.8, 0.045 min⁻¹ and 0.06 min⁻¹.
For the molecule RhodamineB-GEKIPNFIPAELKLITKE [RPtag(small) Cd3], the “Keq (S-S*)” value is 3.1, the “kf (S to S*)” value was 0.014 min⁻¹ and the “kr (S* to S)” value stood at 0.045 min⁻¹.
The like results for RhodamineB-GEKIPNFIPAELKLITKENV [RPtag(small) Cd1] were, in that order, 2.5, 0.1 min⁻¹ and 0.042 min⁻¹.
For the molecule RhodamineB-GEKIPNFAPAELKLITKENVQ [RPtag(small) i8a], the “Keq (S-S*)” value came out at 0.8, the “kf (S to S*)” value is 0.078 min⁻¹ and the “kr (S* to S)” value amounted to 0.046 min⁻¹.
The like results for RhodamineB-GEKIPNFIPAELKLIAKENVQ [RPtag(small) t16a] were, in that order, 2.5, 0.071 min⁻¹ and 0.038 min⁻¹.
Take RhodamineB-GEKIPAFIPAELKLITKENVQ [RPtag(small) n6a]: the “Keq (S-S*)” value worked out at 1.3, the “kf (S to S*)” value was 0.082 min⁻¹ and the “kr (S* to S)” value was 0.068 min⁻¹.
As for RhodamineB-GEKIPNFIPAEAKLITKENVQ [RPtag(small) l12a], the “Keq (S-S*)” value is 1.1, the “kf (S to S*)” value was 0.089 min⁻¹ and the “kr (S* to S)” value was determined as 0.081 min⁻¹.
Turning to B1, the “Keq (S-S*)” value is 1.5, the “kf (S to S*)” value stood at 0.073 min⁻¹ and the “kr (S* to S)” value turned out to be 0.05 min⁻¹.
As for RhodamineB-GEKIPNFIPAELKLATKENVQ [RPtag(small) i15a], the “Keq (S-S*)” value came to 1.4, the “kf (S to S*)” value was 0.077 min⁻¹ and the “kr (S* to S)” value stood at 0.053 min⁻¹.
Turning to B2, the “Keq (S-S*)” value came out at 0.8, the “kf (S to S*)” value amounted to 0.087 min⁻¹ and the “kr (S* to S)” value worked out at 0.11 min⁻¹.
RhodamineB-GEKIPNFIAAELKLITKENVQ [RPtag(small) p9a]: the “Keq (S-S*)” value stood at 2.7, the “kf (S to S*)” value is 0.092 min⁻¹ and the “kr (S* to S)” value is 0.04 min⁻¹.
As for RhodamineB-KIPNFIPAELKLITK [RPtag(small) Nd2, Cd4], the “Keq (S-S*)” value amounted to 0.7, the “kf (S to S*)” value was 0.093 min⁻¹ and the “kr (S* to S)” value worked out at 0.13 min⁻¹.
Turning to RhodamineB-KIANFIPAELKLITK [RPtag(small) Nd2, Cd4, p5a], the “Keq (S-S*)” value was 0.8, the “kf (S to S*)” value was found to be 0.11 min⁻¹ and the “kr (S* to S)” value was 0.14 min⁻¹.

Values taken from patent US20200102347A1 (AUCTUS BIOLOGIES, published 2020).
